Data as given in patent publication US20220228157A1, “GENE EDITING IN DIVERSE BACTERIA” (priority 2019, published 2022).

Assays:
[1] = tested on: 90 bp oligos pre-coated with SSB; assay: Oligonucleotide annealing and quenching in vitro; type: biochemical
Text: It was first whether two 90 bp oligos could anneal if they were pre-coated with SSB. SSBs was purified from E. coli (gram-negative), where most recombineering work has been performed, and L. lactis (gram-positive), a lactic acid bacterium phylogenetically distantly related to E. coli. […] It was next tested capacity of a phage RecT protein to overcome this SSB-mediated inhibition of annealing. Thus, Redβ, which is not broadly portable, but mediates efficient oligonucleotide annealing in E. coli, was purified. […] These preliminary results gave us an indication that while bacterial SSBs inhibit oligonucleotide annealing in vitro, RecTs overcome the inhibitory effect in an SSB-specific manner.
Fluorescent (tolC-r.null.mut-3′FAM) and quenching (tolC-f.null.mut-5′IBFQ) oligos were ordered from Integrated DNA Technologies. Unless otherwise indicated, 50 nM of each oligo was incubated in 25 mM TRIS-HCl pH 7.4 with 1.0 μM Ec_SSB or Ll_SSB at 30° C. for 30 minutes. 100 μl of each oligo mixture were then combined into a 96-well clear-bottom black assay plate (Costar), incubated a further 60 minutes at 30° C., and annealing was tracked on a Synergy H4 microplate reader (BioTek) with fluorescence excitation set to 495 nm and emission set to 520 nm. After 60 minutes, 20 μl of a solution with or without 25 μM Redβ and containing 100 mM MgCl2 was added to achieve a final reaction concentration of 2.5 μM Redβ and 10 mM MgCl2. The annealing was then tracked over 10 hours in a the Synergy H4 microplate reader with the setting indicated above.

M. smegmatis = assay: Allelic recombination frequency, selective vs non-selective plates; type: cell-based, Mycobacterium smegmatis
Experimental: A single colony of M. smegmatis was grown overnight to saturation. The next day 25 μL of dense culture was inoculated into 5 mL of fresh media in the evening and grown overnight to an OD600 of 0.9. Cells were pelleted at 4° C. by centrifugation at 3,500×g for 10 minutes and washed twice with 10 mL ice-cold 10% glycerol. Cells were resuspended in 360 μL ice-cold 10% glycerol and transferred along with 10 μL of DNA to a pre-chilled 0.2 cm electroporation cuvette.
Electrocompetent cells were electroporated with 90-mer oligos at: 1 uM for E. coli, 50 μg for L. lactis, and 10 uM for C. crescentus. 70-mer oligos were used at 1 μg for M. smegmatis. All oligos were obtained from IDT and can be found under “Oligonucleotides for genome editing” in materials and methods. For dsDNA experiments L. lactis was electroporated with 1.5 μg purified linear dsDNA. Cells were electroporated using a Bio-Rad gene pulser set to 25 μF, 200 S2, and 1.8 kV for E. coli, 2.0 kV for L. lactis, and 1.5 kV for C. crescentus and to 1000Ω and 2.5 kV for M. smegmatis. […] Colonies were counted using a custom script in Fiji, and allelic recombination frequency was calculated by dividing the number of colonies on selective plates, with the number of colonies on non-selective plates.

E. coli SEER chassis = assay: SEER library selection (frequency and enrichment by NGS); type: cell-based, Escherichia coli; conditions: Broad RecT Library, 10 rounds of SEER
Experimental: Therefore, it was determined whether by screening additional RecT variants, again exploiting the increased throughput of SEER compared to previous efforts, one might discover recombineering proteins further improved over Redβ and PapRecT. To this aim a second library was constructed, identifying a maximally diverse group of 109 RecT variants, 106 of which were synthesized successfully, which was called Broad RecT Library (see Methods for more details). Next, as previously described, 10 rounds of SEER selection was performed on Broad RecT Library (FIGS. 8A-8B), and upon plotting frequency against enrichment after the final selection, a clear winner emerged (FIG. 9A). […]
Native resistance alleles were identified in each of the three species for resistance to rifampicin (rif) at the rpoB locus or streptomycin (stm) at the rpsL locus. The concentration of antibiotic necessary to confer a selective benefit to the resistant allele was determined for each strain. […]
Primers were designed to amplify a 215 bp product containing the barcode region of the SSAP libraries from the pARC8 plasmid and to add on Illumina adaptors. […] Barcoded amplicons were then purified with AMPure XP magnetic beads (Beckman Coulter), pooled, and the final pooled library was quantified with the NEBNext Library Quant Kit for Illumina (NEB). […]

B1: Redβ: Redβ SSAP from Enterobacteria phage λ, SEQ ID NO: 474 (protein)
chain: MSTALATLAGKLAERVGMDSVDPQELITTLRQTAFKCDASDAQFIALLIVANQYGLNPWTKEIYAFPDKQNGIVPVVGVDGWSRIINENQQFDGMDFEQDNESCTCRIYRKDRNHPICVTEWMDECRREPFKTREGREITGPWQSHPKRMLRHKAMIQCARLAFGFAGIYDKDEAERIVENTAYTAERQPERDITPVNDETMQEINTLLIALDKTWDDDLLPLCSQIFRRDIRASSELTQAEAVKALGFLKQKATEQKVAA
modifications: Bacteriophage Lambda
Ability to overcome SSB-mediated inhibition of annealing [1]: overcame the inhibitory effect of EcSSB but not L1SSB

B2: PapRecT: SSAP from Pseudomonas aeruginosa, SEQ ID NO: 24, UniParc ID: UPI0001E9E6CB (protein, listed as Pseudomonas aeruginosa)
chain: MGTALTPLLTKFATRYEMGTTPEEVANTLKQTCFKGQVNDSQMVALLIVADQYKLNPFTKELYAFPDKNNGIVPVVGVDGWARIINENPQFDGMEFSMDQQGTECTCKIYRKDRSHAISATEYMAECKRNTQPWQSHPRRMLRHKAMIQCARLAFGFAGIYDQDEAERIVERDVTPAEQYEDVSEAICLIKDSPTMEDLQAAFSNAWKAYKTKGARDQLTAAKDQRKKELLDAPIDVEFEETGDDRAA
Annealing kinetics in vitro [1]: improved annealing kinetics in vitro | Editing efficiency (M. smegmatis): enabled high efficiency editing

B3: CspRecT: RecT SSAP (UniParc ID: UPI0001837D7F) from a phage of Collinsella stercoris (protein)
chain: MNQIVKFTDDSGLAVQVTPDDVRRYICENATEKEVGLFLQLCQTQRLNPFVKDAYLVKYGGAPASMITSYQVFNRRACRDANYDGIKSGVVVLRDGDVVHKRGAACYKKAGEELIGGWAEVRFKDGRETAYAEVALDDYSTGKSNWAKMPGVMIEKCAKAAAWRLAFPDTFQGMYAAEEMDQAQQPEQVRAQAEQPVDLQPIRELFKPYCEHFGITPAEGMTAVCGAVGAEGMHSMTEQQARRARAWMEEEMAAPAVEAEYEVVDEGEVF
modifications: Collinsella stercoris DSM 13279
Frequency against enrichment after final selection (E. coli SEER chassis): clear winner
